We go through three molecules from US20250180556A1 (ECOLE POLYTECHNIQUE FEDERALE DE LAUSANNE EPFL, published 2025).

Assay [1] deals with T1, glutathione S-transferase (GST)-HmtA chimeric construct, biotinylated in vivo (Methanobrevibacter smithii, biotinylated in vivo by bacteria at the N-terminus (GST) end).
T1 construct: The construct was immobilised on coated polystyrene plates; also called GCJ construct; HmtA containing construct; not shown: glutathione S-transferase (GST)
Description: ELISA, biotinylated GST-HmtA immobilised on coated plates. The protocol:
(§1) The binding properties of all antibodies were tested by ELISA. A glutathione S-transferase (GST)-HmtA chimeric construct was prepared and further biotinylated in vivo by bacteria at the N-terminus (GST) end of the HmtA construct (GCJ construct). The construct was immobilized in coated polystyrene plates. A control chimeric GST construct (GCH) lacking HmtA was prepared, biotinylated and immobilized analogously.

The target of assay [2] is T1, glutathione S-transferase (GST)-HmtA …. Description: ELISA (figure legend). On the procedure: as §1

T1 sequence (chain, as listed by the source mutant): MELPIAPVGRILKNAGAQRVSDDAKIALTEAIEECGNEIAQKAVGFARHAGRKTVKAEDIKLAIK

B1: scFv of monoclonal antibody mAb1 (N-VH-linker-VL-C) (scFv)
scFv: EVQLVQSGAEVKKPGESLKISCKGSGYSFTSYWIGWVRQMPGKGLEWMGIIYPGDSDTRYSPSFQGQVTISADKSISTAYLQWSSLKASDTAMYYCARAGFRGYCSGGSCYRLPYWGQGTLVTVSSGGGGSGGGGSGGGGSTQSVLTQPPSVSAAPGQKVTISCSGSSSNIGNNYVSWYQQLPGTAPKLLIYDNNKRPSGIPDRFSGSKSGTSATLGITGLQTGDEADYYCGTWDVLAARSVFGGGTKLTVLG
notes: Selected from the Tomlinson I,J human scFv library (pIT2 vector); also called scFv based on mAb1
Take B1: the binding result in assay [1] is “binds”.

B2: scFv of monoclonal antibody mAb2 (N-VH-linker-VL-C) (scFv)
scFv: EVQLVQSGAEVKKPGESLKISCKGSGYSFTSYWIGWVRQMPGKGLEWMGIIYPGDSDTRYSPSFQGQVTISADKSISTAYLQWSSLKASDTAMYYCARLATGPHGIASAGRRYLDYWGQGTLVTVSSGGGGSGGGGSGGGGSTQSVLTQPPSVSAAPGQKVTISCSGSSSNIGNNYVSWYQQLPGTAPKLLIYDNNKRPSGIPDRFSGSKSGTSATLGITGLQTGDEADYYCGTWDSRGFGVFGGGTKLTVLG
notes: Selected from the Tomlinson I,J human scFv library (pIT2 vector); also called scFv based on mAb2
B2: the binding result in assay [1] is reported as “binds”.

B3: scFv of monoclonal antibody mAb5 (N-VH-linker-VL-C) (scFv)
scFv: EVQLVQSGAEVKKPGESLKISCKGSGYSFTSYWIGWVRQMPGKGLEWMGIIYPGDSDTRYSPSFQGQVTISADKSISTAYLQWSSLKASDTAMYYCARAKVGQRYSSGRYFFDYWGQGTLVTVSSGGGGSGGGGSGGGGSTEIVLTQSPATLSLSPGERATLSCRASQSVSSYLAWYQQKPGQAPRLLIYDASNRATGIPARFSGSGSGTDFTLTISSLEPEDFAVYYCQQGAKDNPMTFGQGTKVEIKR
notes: Selected from the Tomlinson I,J human scFv library (pIT2 vector); also called scFv based on mAb5
As for B3, the binding result in assay [2] is “binds”.
